This is an account of results in US20150197796, “SSB METHOD” (OXFORD NANOPORE TECHNOLOGIES LIMITED, published 2015).

The target in this data set is EcoSSB-WT (Escherichia coli, UniProt P0AGE0 SEQ:1-177). As to the kind of experiment: EMSA; 5% TBE gel. As to conditions: tags: N-terminal His6-TEV site removed; commercial EcoSSB-WT also run; chain copies: 4 stated (homotetramer in solution). (In general: Mobility shift assays separate free from complexed probe on a gel.)

B1: 70mer polyT (ssDNA)
DNA: TTTTTTTTTTTTTTTTTTTTTTTTTTTTTTTTTTTTTTTTTTTTTTTTTTTTTTTTTTTTTTTTTTTTTT
Consider B1, for which the binding result is reported as “binds”.
